Six molecules from PMC8336959 (Science Advances, 2021) can be followed below.

For orientation: Kd means the free concentration of one partner at which half of the binding sites on the other are occupied at equilibrium, for simple one-to-one binding. The low end stands for a tighter complex, the high end for a looser complex.

B1: RPA70 N-terminal OB1 domain (RPA70N, residues 1 to 120), Atto488-labeled (domain or fragment)
chain: MVGQLSEGAIAAIMQKGDTNIKPILQVINIRPITTGNSPPRYRLLMSDGLNTLSSFMLATQLNPLVEEEQLSSNCVCQIHRFIVNTLKDGRRVVILMELEVLKSAEAVGVKIGNPVPYNE
modifications: Atto488 label
B2: Dual-phosphorylated H2AX (pH2AX) peptide (peptide)
peptide: PSGGKKATQA[pS]QE[pY]
B3: MRE11 peptide (peptide)
peptide: PWVNYQDGNLN
B4: GRB2 OB1 peptide (peptide)
peptide: KYDFKATADDELSFKRG
B5: Phosphorylated EGFR synthetic peptide (peptide)
peptide: FLPVPE[pY]INQSVPKR
B6: Tyrosine-phosphorylated MRE11 peptide (peptide)
peptide: PWVN[pY]QDGNLN

Square brackets hold non-standard residues; d marks the D form. Ends that are not written are not given here. pY = N[C@@H](Cc1ccc(OP(=O)(O)O)cc1)C(=O)O; pS = N[C@@H](COP(=O)(O)O)C(=O)O

Test in all cases: MST
The target in test [1] is GRB2, wild type, bacterially expressed and purified (UniProt P62993 1-217).
The target in test [2] is Atto488-labeled GRB2-SH2 domain (UniProt P62993 60-152, Atto488 label).
The target in test [3] is B1.

Chain of GRB2, wild type, bacterially expressed and purified (P62993 whole entry, the tested form may be a part): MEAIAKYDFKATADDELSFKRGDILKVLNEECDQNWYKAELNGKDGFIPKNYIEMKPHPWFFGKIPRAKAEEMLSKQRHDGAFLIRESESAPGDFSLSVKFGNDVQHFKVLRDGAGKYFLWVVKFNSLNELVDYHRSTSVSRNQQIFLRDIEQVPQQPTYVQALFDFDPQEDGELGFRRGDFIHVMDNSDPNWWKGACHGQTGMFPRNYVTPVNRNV
Chain of Atto488-labeled GRB2-SH2 domain (P62993 60-152): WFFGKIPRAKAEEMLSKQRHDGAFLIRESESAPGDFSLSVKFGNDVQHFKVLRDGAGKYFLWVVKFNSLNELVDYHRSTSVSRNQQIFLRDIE

With B1, in test [1], the binding result is “binds”.

As for B2, the binding result in test [1] is reported as “binds”.

Turning to B3, binding in test [2] was characterised by a dissociation constant (Kd) of 33 ± 15 µM.

As to B4, the binding result in test [3] is given as “binds”.

In the case of B5, in test [2], the Kd was found to be 7.2 ± 2 µM.

Regarding B6, the binding result in test [1] is recorded as “binds”.
